{"source": "patent US12344663B2", "about": "“Anti-C3 antibodies and antigen-binding fragments thereof and their uses for treating eye or ocular diseases” (CDR-Life AG, priority 2021, dated 2025)", "molecules": {"B1": {"name": "Clone VIII: affinity maturation hit scFv, SEQ ID NO: 36 (protein)", "scFv": "MQLVLTQSPSASASLGASVKLTCTLSSAHKTYTIDWYQQQPEKGPRYLMQLKSEGSYTKGTGVPDRFSGSSSGAERYLTISSLQSEDSAVYYCGTEGVGGYVFGCGTKLTVLGGGGGSGGGGSGGGGSGGGGSQVQVVESGGGSVQPGRSLRLSCAVSGFSLYNYAMNWVRQAPGKCLEWIGIINVGGGTNYASWAKGRFTISTDNSKNTVYLQMNSLRAEDTASYYCARAVGYHHSRLDPWGQGTSVTVSS", "modifications": "ScFv"}, "B2": {"name": "Clone XIV: scFv combining affinity maturation substitutions and disulfide bond stabilization, SEQ ID NO: 42 (protein)", "scFv": "B1 scFv with G44C, S88E, V90D, C105G, C177G, Q244C", "modifications": "ScFv"}, "B3": {"name": "Clone XIII: scFv combining affinity maturation substitutions and disulfide bond stabilization, SEQ ID NO: 41 (protein)", "scFv": "B1 scFv with G44C, S88E, V90D, C105G, C177G, S237A, Q244C", "modifications": "ScFv"}, "B4": {"name": "Clone VI: Clone V with additional rabbit residues replaced by germline, SEQ ID NO: 34 (protein)", "scFv": "MQLVLTQSPSASASLGASVKLTCTLSSAHKTYTIDWYQQQPEKGPRYLMQLKSDGSYTKGTGVPDRFSGSSSGAERYLTISSLQSEDEADYYCGTDYGGGYVFGGGTKLTVLGGGGGSGGGGSGGGGSGGGGSQVQVVESGGGSVQPGRSLRLSCAASGFSLYNYAMNWVRQAPGKGLEWIGIINTDGNTNYASWAKGRFTISTDNSKNTLYLQMNSLRAEDTASYYCARAVGYHHHALDPWGQGTSVTVSS", "modifications": "ScFv"}, "B5": {"name": "Clone XII: scFv combining affinity maturation substitutions and disulfide bond stabilization, SEQ ID NO: 40 (protein)", "scFv": "B4 scFv with G44C, D54E, A157V, T186V, D187G, N189G, L211V, H237A, A238R, Q244C", "modifications": "ScFv"}, "B6": {"name": "Beovu: comparator in EpiMatrix table; brolucizumab is a scFv (antibody, chains of the INN, looked up, V domains shown)", "VH": "EVQLVESGGGLVQPGGSLRLSCTASGFSLTDYYYMTWVRQAPGKGLEWVGFIDPDDDPYYATWAKGRFTISRDNSKNTLYLQMNSLRAEDTAVYYCAGGDHNSGWGLDIWGQGTLVTVSS", "VL": "EIVMTQSPSTLSASVGDRVIITCQASEIIHSWLAWYQQKPGKAPKLLIYLASTLASGVPSRFSGSGSGAEFTLTISSLQPDDFATYYCQNVYLASTNGANFGQGTKLTVL", "modifications": "scFv", "notes": "brolucizumab is a scFv"}, "B7": {"name": "Clone IV: rabbit-derived parental anti-C3 antibody, SEQ ID NO: 32 (protein)", "chain": "QSVKESGGRLVTPGTPLTLTCTVSGFSLYNYAMNWVRQAPGKGLEWIGIINTDGNTNYASWAKGRFTISTTSSTTVDLKITSPTTEDTATYFCPRAVGYHHHALDPWGPGTLVTVSSGGGGSGGGGSGGGGSGGGGASELVLTQSPSVSAALGASAKLTCTLSSAHKTYTIDWYQQQQGEAPRYLMQLKSDGSYTKGTGVPDRFSGSSSGADRYLIIPSVQADDEADYYCGTDYGGGYVFGGGTQLTVTG", "modifications": "scFv"}}, "key": {"[1]": {"molecular_target": "human C3 (Homo sapiens, UniProt P01024)", "sequence (P01024 23-1663)": "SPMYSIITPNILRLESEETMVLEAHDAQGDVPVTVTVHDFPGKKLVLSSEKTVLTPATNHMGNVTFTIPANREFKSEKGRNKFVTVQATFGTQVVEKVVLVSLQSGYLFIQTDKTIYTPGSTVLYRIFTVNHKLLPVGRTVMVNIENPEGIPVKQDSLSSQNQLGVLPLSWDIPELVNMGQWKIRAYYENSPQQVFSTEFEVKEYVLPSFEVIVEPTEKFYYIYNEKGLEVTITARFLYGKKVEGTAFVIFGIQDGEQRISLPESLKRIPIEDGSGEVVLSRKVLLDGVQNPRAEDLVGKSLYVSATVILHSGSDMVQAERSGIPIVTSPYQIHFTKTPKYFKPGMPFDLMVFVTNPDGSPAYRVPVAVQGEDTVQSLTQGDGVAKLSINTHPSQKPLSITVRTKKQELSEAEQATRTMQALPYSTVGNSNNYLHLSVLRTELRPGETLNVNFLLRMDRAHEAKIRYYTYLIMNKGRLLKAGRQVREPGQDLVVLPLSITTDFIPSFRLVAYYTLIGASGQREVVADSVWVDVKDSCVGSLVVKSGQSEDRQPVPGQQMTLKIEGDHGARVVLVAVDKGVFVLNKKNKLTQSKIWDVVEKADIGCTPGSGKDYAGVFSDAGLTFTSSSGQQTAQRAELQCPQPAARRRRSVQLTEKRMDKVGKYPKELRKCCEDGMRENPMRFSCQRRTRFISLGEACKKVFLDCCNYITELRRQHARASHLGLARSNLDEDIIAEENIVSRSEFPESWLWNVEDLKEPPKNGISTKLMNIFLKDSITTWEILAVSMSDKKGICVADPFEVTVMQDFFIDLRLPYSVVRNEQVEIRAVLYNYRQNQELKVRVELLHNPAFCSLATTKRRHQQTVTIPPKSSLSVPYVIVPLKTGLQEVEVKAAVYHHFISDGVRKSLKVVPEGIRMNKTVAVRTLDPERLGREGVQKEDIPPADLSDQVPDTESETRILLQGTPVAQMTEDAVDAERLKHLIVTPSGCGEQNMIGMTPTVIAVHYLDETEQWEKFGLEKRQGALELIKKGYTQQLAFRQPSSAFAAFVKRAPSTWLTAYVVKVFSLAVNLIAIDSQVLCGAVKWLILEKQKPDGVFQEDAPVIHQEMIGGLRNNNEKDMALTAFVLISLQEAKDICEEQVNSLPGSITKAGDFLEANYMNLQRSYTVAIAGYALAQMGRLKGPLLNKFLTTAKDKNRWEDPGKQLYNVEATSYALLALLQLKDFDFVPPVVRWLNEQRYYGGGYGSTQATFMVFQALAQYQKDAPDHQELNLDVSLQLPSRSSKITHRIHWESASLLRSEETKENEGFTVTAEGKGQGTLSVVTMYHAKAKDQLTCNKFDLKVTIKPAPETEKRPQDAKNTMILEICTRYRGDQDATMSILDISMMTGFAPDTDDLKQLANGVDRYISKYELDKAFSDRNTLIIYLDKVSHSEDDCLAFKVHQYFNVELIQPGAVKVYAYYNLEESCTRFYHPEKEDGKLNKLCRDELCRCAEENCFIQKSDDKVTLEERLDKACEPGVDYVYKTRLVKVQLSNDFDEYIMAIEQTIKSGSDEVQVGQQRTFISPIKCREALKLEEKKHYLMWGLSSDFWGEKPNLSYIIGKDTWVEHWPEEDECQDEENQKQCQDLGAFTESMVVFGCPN", "test": "SPR (Biacore T100) binding to human C3", "settings": "C3 and C3b", "protocol": "The kinetic parameters of the candidates are determined using a surface plasmon resonance (SPR) and Biacore T100 device. C3 and different variants thereof (Table 19) are immobilized as a ligand on a HC30M SPR sensor chip (XanTec bionanalytics, Germany) using EDC/[…] linking chemistry. Five increasing concentrations of each molecule (analyte) are consecutively injected using the single cycle kinetics (SCK) mode to determine the kinetic parameters. Regeneration between the candidates is done with 10 mM glycine*HCl, 2 M NaCl, pH 3.5. The data is fitted to a 1:1 Langmuir binding model and the kinetic parameters of on-rate (ka), off-rate (kd), and affinity […] were determined."}, "[2]": {"test_system": "complement pathways", "test": "Complement inhibition assays, comparison with parental Clone IV", "assay_type": "biochemical, human", "settings": "in words", "description": "(§1) To identify antibodies that block all 3 complement pathways, antibodies are screened using an enzyme immunoassay for the qualitative determination of functional classical, lectin and alternative complement pathways in human serum using the WEISLAB® Complement system Screen (Svar Life Science AB, Malmö, Sweden)."}, "[3]": {"test": "Thermal stability by differential scanning fluorimetry (DSF)", "assay_type": "physicochemical", "settings": "for Melting temperature: DSF, Example 4", "description": "Differential scanning fluorimetry (DSF) measures protein unfolding by monitory changes in fluorescence as a function of temperature.\nThe temperature of protein unfolding (Tm) is tied to the stability of antibodies, specifically to aggregation during storage and long-term stability of the therapeutic product. The thermal transitions of monoclonal antibody CH2 and CH3 domains are typically invariant for different antibodies within an isotype, with the CH2 domain unfolding prior to the CH3 domain."}, "[4]": {"test": "Concentration-dependent monomeric stability study at 37° C.", "assay_type": "physicochemical", "settings": "for Loss in monomeric content after 2 weeks of incubation at 37° C.: Clone XIII at 150 mg/mL, Clone XIV at 50 mg/mL; for Loss in monomeric content with concentration: Clone XIII concentrated to 150 mg/mL, Clone XIV to 50 mg/mL"}, "[5]": {"settings": "40 nmol IVT, scFv versus Fab (ranibizumab); in words; cited from earlier work"}, "[6]": {"test_system": "Alternative Pathway", "test": "WEISLAB Complement system Screen, alternative pathway MAC (C5b-C9) formation", "assay_type": "biochemical, human", "settings": "single dose of 2 μM; AP-dependent MAC formation", "protocol": "as §1\n(§2) To monitor inhibition of the complement system in human serum, the scFv of the invention or the comparator molecules are tested using an enzyme immunoassay for the qualitative determination of functional classical, lectin and alternative complement pathways in human serum using the WEISLAB® Complement system Screen (Svar Life Science AB, Malmö, Sweden), following the supplier's instructions. The amount of C5b-C9 neoantigen generated is proportional to the functional activity of complement pathways. The scFv of the invention and the comparator molecules are tested in a concentration response curve and the IC50 for the inhibition is calculated using the GraphPadPrism software and a non-linear, 4 parameters curve regression."}, "[7]": {"test_system": "Classical Pathway", "test": "WEISLAB Complement system Screen, classical pathway MAC (C5b-C9) formation", "assay_type": "biochemical, human", "settings": "single dose of 2 μM; CP-dependent MAC formation", "protocol": "as §1, §2"}, "[8]": {"test_system": "Lectin Pathway", "test": "WEISLAB Complement system Screen, lectin pathway MAC (C5b-C9) formation", "assay_type": "biochemical, human", "settings": "single dose of 2 μM; LP-dependent MAC formation", "protocol": "as §1, §2"}}, "note": "Residue numbers refer to the chain shown, from its start."}
{"molecule": "B1", "values": [{"measurement": "Increase in the binding affinity to C3 and C3b compared to Clone IV", "setting": "[1]", "result": "approximately 10 fold"}, {"measurement": "Complement inhibition activity compared to parental molecule Clone IV", "setting": "[2]", "result": "superior performance"}]}
{"molecule": "B2", "values": [{"measurement": "Melting temperature", "setting": "[3]", "result": 67.2, "unit": "°C"}, {"measurement": "Loss in monomeric content after 2 weeks of incubation at 37° C.", "setting": "[4]", "result": 2.3, "unit": "%"}, {"measurement": "Loss in monomeric content with concentration", "setting": "[4]", "result": 1.6, "unit": "%"}]}
{"molecule": "B3", "values": [{"measurement": "Melting temperature", "setting": "[3]", "result": 67.7, "unit": "°C"}, {"measurement": "Loss in monomeric content after 2 weeks of incubation at 37° C.", "setting": "[4]", "result": 2.2, "unit": "%"}, {"measurement": "Loss in monomeric content with concentration", "setting": "[4]", "result": "no loss"}]}
{"molecule": "B4", "values": [{"measurement": "Increase of thermal stability of the construct", "setting": "[3]; versus preceding variant", "result": 11.7, "unit": "°C"}, {"measurement": "Binding affinity to C3 and C3b compared to parental molecule Clone IV", "setting": "[1]; in words", "result": "comparable to the parental molecule"}]}
{"molecule": "B5", "values": [{"measurement": "Melting temperature", "setting": "[3]", "result": 70.4, "unit": "°C"}]}
{"molecule": "B6", "values": [{"measurement": "Retinal penetration after equimolar intravitreal injection", "setting": "[5]", "result": "improved retinal penetration"}]}
{"molecule": "B7", "values": [{"measurement": "Residual alternative pathway complement activity with Clone IV [%]", "setting": "[6]", "result": "−0.1 ± 0.2", "unit": "%"}, {"measurement": "Residual classical pathway complement activity with Clone IV", "setting": "[7]", "result": "2.9 ± 0.0", "unit": "%"}, {"measurement": "Residual lectin pathway complement activity with Clone IV [%]", "setting": "[8]", "result": "0.5 ± 0.9", "unit": "%"}]}
